Assay results from IntAct's records for PubMed 20534488.

B1: Ras-related protein Rab-5C (Homo sapiens), P51148 (parent)
chain: MAGRGGAARPNGPAAGNKICQFKLVLLGESAVGKSSLVLRFVKGQFHEYQESTIGAAFLTQTVCLDDTTVKFEIWDTAGQERYHSLAPMYYRGAQAAIVVYDITNTDTFARAKNWVKELQRQASPNIVIALAGNKADLASKRAVEFQEAQAYADDNSLLFMETSAKTAMNVNEIFMAIAKKLPKNEPQNATGAPGRNRGVDLQENNPASRSQCCSN
B2: Ras-related protein Rab-5C (Homo sapiens), P51148 (parent)
chain: B1 chain
partner: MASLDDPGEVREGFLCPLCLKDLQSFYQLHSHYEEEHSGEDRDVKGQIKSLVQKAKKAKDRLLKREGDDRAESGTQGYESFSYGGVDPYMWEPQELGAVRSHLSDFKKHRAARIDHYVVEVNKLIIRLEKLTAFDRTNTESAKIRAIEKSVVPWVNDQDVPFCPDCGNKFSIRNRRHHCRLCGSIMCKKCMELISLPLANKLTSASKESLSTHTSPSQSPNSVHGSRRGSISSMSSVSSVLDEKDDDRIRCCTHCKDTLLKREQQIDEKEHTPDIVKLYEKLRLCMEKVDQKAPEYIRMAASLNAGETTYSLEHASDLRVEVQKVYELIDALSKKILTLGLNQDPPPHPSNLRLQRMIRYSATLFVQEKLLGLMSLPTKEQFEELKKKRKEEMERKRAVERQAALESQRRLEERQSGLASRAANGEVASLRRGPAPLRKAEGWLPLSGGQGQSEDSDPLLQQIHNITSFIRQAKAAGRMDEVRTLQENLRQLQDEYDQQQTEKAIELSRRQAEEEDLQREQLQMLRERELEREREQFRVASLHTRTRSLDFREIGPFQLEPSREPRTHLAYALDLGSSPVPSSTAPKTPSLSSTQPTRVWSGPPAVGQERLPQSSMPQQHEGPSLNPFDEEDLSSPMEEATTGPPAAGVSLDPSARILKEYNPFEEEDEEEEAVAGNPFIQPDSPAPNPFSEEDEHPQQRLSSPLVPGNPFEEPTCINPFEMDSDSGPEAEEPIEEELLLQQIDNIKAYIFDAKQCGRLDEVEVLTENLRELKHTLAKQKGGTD
B3: Ras-related protein Rab-5A (Homo sapiens), P20339-1 (parent)
chain: MASRGATRPNGPNTGNKICQFKLVLLGESAVGKSSLVLRFVKGQFHEFQESTIGAAFLTQTVCLDDTTVKFEIWDTAGQERYHSLAPMYYRGAQAAIVVYDITNEESFARAKNWVKELQRQASPNIVIALSGNKADLANKRAVDFQEAQSYADDNSLLFMETSAKTSMNVNEIFMAIAKKLPKNEPQNPGANSARGRGVDLTEPTQPTRNQCCSN

Variants of: B1
Conditions: with eea1_human EEA1, Q15075
eea1_human EEA1, Q15075, sequence (Q15075 whole entry): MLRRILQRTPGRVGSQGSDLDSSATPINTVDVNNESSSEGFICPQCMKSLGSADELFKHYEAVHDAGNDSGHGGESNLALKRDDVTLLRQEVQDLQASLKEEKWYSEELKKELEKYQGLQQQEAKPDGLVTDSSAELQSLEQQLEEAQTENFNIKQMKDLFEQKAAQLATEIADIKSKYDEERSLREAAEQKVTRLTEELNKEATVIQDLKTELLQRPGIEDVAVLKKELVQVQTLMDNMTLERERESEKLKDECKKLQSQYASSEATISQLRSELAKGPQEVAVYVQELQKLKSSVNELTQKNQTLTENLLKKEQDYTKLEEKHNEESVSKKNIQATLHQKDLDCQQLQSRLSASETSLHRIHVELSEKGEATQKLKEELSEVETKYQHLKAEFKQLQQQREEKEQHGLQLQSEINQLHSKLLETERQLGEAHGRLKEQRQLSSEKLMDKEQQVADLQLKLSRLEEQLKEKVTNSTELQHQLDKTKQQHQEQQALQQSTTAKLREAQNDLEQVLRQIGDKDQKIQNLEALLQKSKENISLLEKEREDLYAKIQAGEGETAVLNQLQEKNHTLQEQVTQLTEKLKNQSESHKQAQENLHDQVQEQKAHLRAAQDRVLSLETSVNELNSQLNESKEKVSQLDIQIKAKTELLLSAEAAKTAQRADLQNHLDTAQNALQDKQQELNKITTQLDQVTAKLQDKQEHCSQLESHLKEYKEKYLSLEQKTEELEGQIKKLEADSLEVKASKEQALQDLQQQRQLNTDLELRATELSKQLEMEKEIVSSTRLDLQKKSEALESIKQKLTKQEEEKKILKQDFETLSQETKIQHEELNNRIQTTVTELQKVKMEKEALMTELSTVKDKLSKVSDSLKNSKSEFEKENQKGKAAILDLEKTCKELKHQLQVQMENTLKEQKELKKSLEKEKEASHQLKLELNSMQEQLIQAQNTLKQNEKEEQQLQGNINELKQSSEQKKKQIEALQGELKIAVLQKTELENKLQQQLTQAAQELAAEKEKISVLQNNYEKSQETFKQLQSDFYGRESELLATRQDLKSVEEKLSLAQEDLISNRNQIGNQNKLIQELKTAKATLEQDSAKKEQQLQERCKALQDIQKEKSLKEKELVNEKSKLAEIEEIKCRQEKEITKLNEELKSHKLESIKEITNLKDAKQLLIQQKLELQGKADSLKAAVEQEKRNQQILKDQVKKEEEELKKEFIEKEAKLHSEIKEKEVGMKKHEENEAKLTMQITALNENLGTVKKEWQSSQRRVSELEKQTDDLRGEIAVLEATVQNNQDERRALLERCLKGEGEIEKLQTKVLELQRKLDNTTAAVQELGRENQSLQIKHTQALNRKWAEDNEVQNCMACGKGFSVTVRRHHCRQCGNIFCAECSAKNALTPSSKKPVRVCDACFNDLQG
For MAGRGGAARPNGPAAGNKICQFKLVLLGESAVGKSSLVLRFVKGQFHEYQESTIGASFLTQTVCLDDTTVKFEIWDTAGQERYHSLAPMYYRGAQAAIVVYDITNTDTFARAKNWVKELQRQASPNIVIALAGNKADLASKRAVEFQEAQAYADDNSLLFMETSAKTAMNVNEIFMAIAKKLPKNEPQNATGAPGRNRGVDLQENNPASRSQCCSN [A57S], the “effect of a mutation on the interaction” value was “disrupting interaction strength”.
With MAGRGGAARPNGPAAGNKICQFKLVLLGESAVGKSSLVLRFVKGQFHEYQESTIGAEFLTQTVCLDDTTVKFEIWDTAGQERYHSLAPMYYRGAQAAIVVYDITNTDTFARAKNWVKELQRQASPNIVIALAGNKADLASKRAVEFQEAQAYADDNSLLFMETSAKTAMNVNEIFMAIAKKLPKNEPQNATGAPGRNRGVDLQENNPASRSQCCSN [A57E] the “effect of a mutation on the interaction” value was “disrupting interaction strength”.
MAGRGGAARPNGPAAGNKICQFKLVLLGESAVGKSSLVLRFVKGQFHEYQESTIGADFLTQTVCLDDTTVKFEIWDTAGQERYHSLAPMYYRGAQAAIVVYDITNTDTFARAKNWVKELQRQASPNIVIALAGNKADLASKRAVEFQEAQAYADDNSLLFMETSAKTAMNVNEIFMAIAKKLPKNEPQNATGAPGRNRGVDLQENNPASRSQCCSN [A57D] was tested, and the “effect of a mutation on the interaction” value was “decreasing interaction strength”.
In the case of MAGRGGAARPNGPAAGNKICQFKLVLLGESAVGKSSLVLRFVKGQFHEYQESTIQAAFLTQTVCLDDTTVKFEIWDTAGQERYHSLAPMYYRGAQAAIVVYDITNTDTFARAKNWVKELQRQASPNIVIALAGNKADLASKRAVEFQEAQAYADDNSLLFMETSAKTAMNVNEIFMAIAKKLPKNEPQNATGAPGRNRGVDLQENNPASRSQCCSN [G55Q], the “effect of a mutation on the interaction” value is reported as “disrupting interaction strength”.
In the case of MAGRGGAARPNGPAAGNKICQFKLVLLGESAVGKSSLVLRFVKGQFHEYQESTIGAAFLTQTVCLDDTTVKFEIWDTAGQERYHSLAPSYYRGAQAAIVVYDITNTDTFARAKNWVKELQRQASPNIVIALAGNKADLASKRAVEFQEAQAYADDNSLLFMETSAKTAMNVNEIFMAIAKKLPKNEPQNATGAPGRNRGVDLQENNPASRSQCCSN [M89S], the “effect of a mutation on the interaction” value is reported as “disrupting interaction strength”.
MAGRGGAARPNGPAAGNKICQFKLVLLGESAVGKSSLVLRFVKGQFHEYQESTIGAAFLTQTVCLDDTTVKFEIWDTAGQERYHSLAPAYYRGAQAAIVVYDITNTDTFARAKNWVKELQRQASPNIVIALAGNKADLASKRAVEFQEAQAYADDNSLLFMETSAKTAMNVNEIFMAIAKKLPKNEPQNATGAPGRNRGVDLQENNPASRSQCCSN [M89A] was tested, and the “effect of a mutation on the interaction” value was “disrupting interaction strength”.

Variants of: B2
Conditions: with rbns5_human RBSN
In the case of MAGRGGAARPNGPAAGNKICQFKLVLLGESAVGKSSLVLRFVKGQFHEYQESTIGAAFLTQTVCLDDTTVKFEIWDTAGQERYHSLAPMYYRGSQAAIVVYDITNTDTFARAKNWVKELQRQASPNIVIALAGNKADLASKRAVEFQEAQAYADDNSLLFMETSAKTAMNVNEIFMAIAKKLPKNEPQNATGAPGRNRGVDLQENNPASRSQCCSN [A94S], the “effect of a mutation on the interaction” value is reported as “increasing interaction strength”.
In the case of MAGRGGAARPNGPAAGNKICQFKLVLLGESAVGKSSLVLRFVKGQFHEYIESTIGAAFLTQTVCLDDTTVKFEIWDTAGQERYHSLAPMYYRGAQAAIVVYDITNTDTFARAKNWVKELQRQASPNIVIALAGNKADLASKRAVEFQEAQAYADDNSLLFMETSAKTAMNVNEIFMAIAKKLPKNEPQNATGAPGRNRGVDLQENNPASRSQCCSN [Q50I], the “effect of a mutation on the interaction” value is reported as “with no effect”.
MAGRGGAARPNGPAAGNKICQFKLVLLGESAVGKSSLVLRFVKGQFHENQESTIGAAFLTQTVCLDDTTVKFEIWDTAGQERYHSLAPMYYRGAQAAIVVYDITNTDTFARAKNWVKELQRQASPNIVIALAGNKADLASKRAVEFQEAQAYADDNSLLFMETSAKTAMNVNEIFMAIAKKLPKNEPQNATGAPGRNRGVDLQENNPASRSQCCSN [Y49N] was tested, and the “effect of a mutation on the interaction” value was “with no effect”.
With MAGRGGAARPNGPAAGNKICQFKLVLLGESAVGKSSLVLRFVEGQFHEYQESTIGAAFLTQTVCLDDTTVKFEIWDTAGQERYHSLAPMYYRGAQAAIVVYDITNTDTFARAKNWVKELQRQASPNIVIALAGNKADLASKRAVEFQEAQAYADDNSLLFMETSAKTAMNVNEIFMAIAKKLPKNEPQNATGAPGRNRGVDLQENNPASRSQCCSN [K43E] the “effect of a mutation on the interaction” value was “disrupting interaction strength”.
With MAGRGGAARPNGPAAGNKICQFKLVLLGESAVGKSSLVLRFVKGQFHEYQESTIGASFLTQTVCLDDTTVKFEIWDTAGQERYHSLAPMYYRGAQAAIVVYDITNTDTFARAKNWVKELQRQASPNIVIALAGNKADLASKRAVEFQEAQAYADDNSLLFMETSAKTAMNVNEIFMAIAKKLPKNEPQNATGAPGRNRGVDLQENNPASRSQCCSN [A57S] the “effect of a mutation on the interaction” value was “decreasing interaction strength”.
MAGRGGAARPNGPAAGNKICQFKLVLLGESAVGKSSLVLRFVKGQFHEYQESTIGADFLTQTVCLDDTTVKFEIWDTAGQERYHSLAPMYYRGAQAAIVVYDITNTDTFARAKNWVKELQRQASPNIVIALAGNKADLASKRAVEFQEAQAYADDNSLLFMETSAKTAMNVNEIFMAIAKKLPKNEPQNATGAPGRNRGVDLQENNPASRSQCCSN [A57D] was tested, and the “effect of a mutation on the interaction” value was “disrupting interaction strength”.
For MAGRGGAARPNGPAAGNKICQFKLVLLGESAVGKSSLVLRFVKGQFHEYQESTIGAAFLTKTVCLDDTTVKFEIWDTAGQERYHSLAPMYYRGAQAAIVVYDITNTDTFARAKNWVKELQRQASPNIVIALAGNKADLASKRAVEFQEAQAYADDNSLLFMETSAKTAMNVNEIFMAIAKKLPKNEPQNATGAPGRNRGVDLQENNPASRSQCCSN [Q61K], the “effect of a mutation on the interaction” value was “with no effect”.
For MAGRGGAARPNGPAAGNKICQFKLVLLGESAVGKSSLVLRFVKGQFHEYQEPTIGAAFLTQTVCLDDTTVKFEIWDTAGQERYHSLAPMYYRGAQAAIVVYDITNTDTFARAKNWVKELQRQASPNIVIALAGNKADLASKRAVEFQEAQAYADDNSLLFMETSAKTAMNVNEIFMAIAKKLPKNEPQNATGAPGRNRGVDLQENNPASRSQCCSN [S52P], the “effect of a mutation on the interaction” value was “decreasing interaction strength”.
For MAGRGGAARPNGPAAGNKICQFKLVLLGESAVGKSSLVLRFVKGQFHEYQESTIGAAFLTQTVCLDDTTVKFEIWDTAGQERFHSLAPMYYRGAQAAIVVYDITNTDTFARAKNWVKELQRQASPNIVIALAGNKADLASKRAVEFQEAQAYADDNSLLFMETSAKTAMNVNEIFMAIAKKLPKNEPQNATGAPGRNRGVDLQENNPASRSQCCSN [Y83F], the “effect of a mutation on the interaction” value was “with no effect”.
With MAGRGGAARPNGPAAGNKICQFKLVLLGESAVGKSSLVLRFVKGQFHPYQESTIGAAFLTQTVCLDDTTVKFEIWDTAGQERYHSLAPMYYRGAQAAIVVYDITNTDTFARAKNWVKELQRQASPNIVIALAGNKADLASKRAVEFQEAQAYADDNSLLFMETSAKTAMNVNEIFMAIAKKLPKNEPQNATGAPGRNRGVDLQENNPASRSQCCSN [E48P] the “effect of a mutation on the interaction” value was “with no effect”.
For MAGRGGAARPNGPAAGNKICQFKLVLLGESAVGKSSLVLRFVKGQFHEYQNSTIGAAFLTQTVCLDDTTVKFEIWDTAGQERYHSLAPMYYRGAQAAIVVYDITNTDTFARAKNWVKELQRQASPNIVIALAGNKADLASKRAVEFQEAQAYADDNSLLFMETSAKTAMNVNEIFMAIAKKLPKNEPQNATGAPGRNRGVDLQENNPASRSQCCSN [E51N], the “effect of a mutation on the interaction” value was “decreasing interaction strength”.
With MAGRGGAARPNGPAAGNKICQFKLVLLGESAVGKSSLVLRFVKGQFHEYQESTIGAAFLTQTVCLDDTTVKFLIWDTAGQERYHSLAPMYYRGAQAAIVVYDITNTDTFARAKNWVKELQRQASPNIVIALAGNKADLASKRAVEFQEAQAYADDNSLLFMETSAKTAMNVNEIFMAIAKKLPKNEPQNATGAPGRNRGVDLQENNPASRSQCCSN [E73L] the “effect of a mutation on the interaction” value was “with no effect”.
MAGRGGAARPNGPAAGNKICQFKLVLLGESAVGKSSLVLRFVKGQFHEYQESTIGAAFLTQTVCLDDTTVKFEIWDTAGQERYRSLAPMYYRGAQAAIVVYDITNTDTFARAKNWVKELQRQASPNIVIALAGNKADLASKRAVEFQEAQAYADDNSLLFMETSAKTAMNVNEIFMAIAKKLPKNEPQNATGAPGRNRGVDLQENNPASRSQCCSN [H84R] was tested, and the “effect of a mutation on the interaction” value was “decreasing interaction strength”.
In the case of MAGRGGAARPNGPAAGNKICQFKLVLLGESAVGKSSLVLRFVKGQFHEYQESTIGAAFMTQTVCLDDTTVKFEIWDTAGQERYHSLAPMYYRGAQAAIVVYDITNTDTFARAKNWVKELQRQASPNIVIALAGNKADLASKRAVEFQEAQAYADDNSLLFMETSAKTAMNVNEIFMAIAKKLPKNEPQNATGAPGRNRGVDLQENNPASRSQCCSN [L59M], the “effect of a mutation on the interaction” value is reported as “with no effect”.

Variants of: B3
Conditions: with eea1_human EEA1, Q15075
With MASRGATRPNGPNTGNKICQFKLVLLGESAVGKSSLVLRFVKGQFHEFQESTIGAAFLTQTVCLDDTTVKFEIWDTAGLERYHSLAPMYYRGAQAAIVVYDITNEESFARAKNWVKELQRQASPNIVIALSGNKADLANKRAVDFQEAQSYADDNSLLFMETSAKTSMNVNEIFMAIAKKLPKNEPQNPGANSARGRGVDLTEPTQPTRNQCCSN [Q79L] the “effect of a mutation on the interaction” value was “with no effect”.
